Experiments:
wasl_rat Wasl = wasl_rat Wasl (UniProt O08816)
tir_eco57 tir = tir_eco57 tir (UniProt Q7DB77)
Sequence of tir_eco57 tir (Q7DB77 whole entry): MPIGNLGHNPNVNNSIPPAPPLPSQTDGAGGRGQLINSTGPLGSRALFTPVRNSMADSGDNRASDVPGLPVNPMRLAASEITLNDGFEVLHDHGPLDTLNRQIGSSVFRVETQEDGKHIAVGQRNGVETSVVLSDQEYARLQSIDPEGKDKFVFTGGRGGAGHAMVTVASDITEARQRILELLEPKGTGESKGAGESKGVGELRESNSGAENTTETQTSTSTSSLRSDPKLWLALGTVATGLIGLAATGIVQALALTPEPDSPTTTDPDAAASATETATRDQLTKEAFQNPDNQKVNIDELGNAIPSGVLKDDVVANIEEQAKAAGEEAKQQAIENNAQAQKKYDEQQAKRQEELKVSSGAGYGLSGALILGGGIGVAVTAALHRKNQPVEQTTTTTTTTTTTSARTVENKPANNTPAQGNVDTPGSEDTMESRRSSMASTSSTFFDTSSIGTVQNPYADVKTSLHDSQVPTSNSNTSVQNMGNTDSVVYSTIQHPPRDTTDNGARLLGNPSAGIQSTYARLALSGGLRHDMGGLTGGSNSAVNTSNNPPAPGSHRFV

Sequence of wasl_rat Wasl (O08816 whole entry): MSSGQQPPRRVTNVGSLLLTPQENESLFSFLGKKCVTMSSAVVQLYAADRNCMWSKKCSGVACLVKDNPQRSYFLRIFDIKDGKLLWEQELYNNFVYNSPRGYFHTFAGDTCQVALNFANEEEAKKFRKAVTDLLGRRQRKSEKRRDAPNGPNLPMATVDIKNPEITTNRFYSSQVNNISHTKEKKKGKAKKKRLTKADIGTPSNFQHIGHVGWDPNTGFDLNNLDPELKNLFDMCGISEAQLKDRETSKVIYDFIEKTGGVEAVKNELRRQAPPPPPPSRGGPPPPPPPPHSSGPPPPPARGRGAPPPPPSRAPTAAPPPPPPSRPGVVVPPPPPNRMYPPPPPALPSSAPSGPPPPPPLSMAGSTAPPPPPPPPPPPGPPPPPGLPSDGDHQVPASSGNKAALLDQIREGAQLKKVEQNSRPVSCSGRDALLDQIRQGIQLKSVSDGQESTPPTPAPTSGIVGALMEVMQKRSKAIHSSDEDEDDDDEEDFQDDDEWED
Sequence of Src substrate cortactin (Mus musculus), Q60598 Y421D;Y466D (Q60598 whole entry Y421D/Y466D): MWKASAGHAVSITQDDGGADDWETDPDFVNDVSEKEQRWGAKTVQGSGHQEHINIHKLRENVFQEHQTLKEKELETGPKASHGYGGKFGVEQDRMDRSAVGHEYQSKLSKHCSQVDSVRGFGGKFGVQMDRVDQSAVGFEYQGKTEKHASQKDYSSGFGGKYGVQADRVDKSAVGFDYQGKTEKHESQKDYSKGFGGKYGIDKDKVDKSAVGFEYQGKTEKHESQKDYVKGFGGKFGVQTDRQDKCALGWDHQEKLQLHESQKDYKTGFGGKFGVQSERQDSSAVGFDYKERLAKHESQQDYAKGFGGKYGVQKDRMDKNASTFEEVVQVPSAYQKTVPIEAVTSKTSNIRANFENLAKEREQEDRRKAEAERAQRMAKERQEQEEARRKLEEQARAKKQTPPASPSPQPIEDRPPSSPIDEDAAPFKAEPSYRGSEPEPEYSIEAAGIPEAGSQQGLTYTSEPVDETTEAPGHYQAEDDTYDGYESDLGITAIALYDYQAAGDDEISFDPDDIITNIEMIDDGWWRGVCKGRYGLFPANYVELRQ
Sequence of Src substrate cortactin (Mus musculus), Q60598 S405D;S418D (Q60598 whole entry S405D/S418D): as the sequence (Q60598 whole entry Y421D/Y466D) above, with S405D, S418D, D421Y, D466Y counted along it
Sequence of Src substrate cortactin (Mus musculus), Q60598 W525K (Q60598 whole entry W525K): as the sequence (Q60598 whole entry Y421D/Y466D) above, with D421Y, D466Y, W525K counted along it

Substance	effect of a mutation on the interaction (wasl_rat Wasl)	effect of a mutation on the interaction (tir_eco57 tir)
Src substrate cortactin (Mus musculus), Q60598 S405D;S418D	disrupting interaction	with no effect
Src substrate cortactin (Mus musculus), Q60598 W525K	with no effect	
Src substrate cortactin (Mus musculus), Q60598 Y421D;Y466D	increasing interaction	increasing interaction

— IntAct's records for PubMed 17451412
